Test results from publication PMC10147923, “Pain-causing stinging nettle toxins target TMEM233 to modulate NaV1.7 function” (Nature Communications, 2023).
Where “and” joins values, the source holds several entries; their conditions need not be identical. Equal entries are not always repeated.

Experiments:
NaV1.7 = NaV1.7 (Homo sapiens, UniProt Q15858); assay type: cell-based
Experimental: To determine recovery from fast inactivation, a 20 ms pulse to 0 mV from a holding potential of −90 mV was used to induce fast inactivation. A subsequent recovery period, ranging from 1 ms to 2216 ms in 50% increments at −90 mV, was followed by a last 20 ms test pulses to 0 mV to determine the time-dependence of recovery from fast inactivation. The proportion of available channels was determined by normalizing peak currents from the last to the first pulse. A two-phase exponential equation was fit to the normalized current, plotted as a function of time, to determine the time constants τ1 and τ2 of recovery from fast inactivation.

NaV1.7/TMEM233 = NaV1.7/TMEM233 (Homo sapiens, UniProt B4DJY2+Q15858); assay: Proximity ligation assay NaV1.7 and TMEM233; conditions: Fig 5e
Experimental: HEK293 cells stably expressing β1/β2 were transiently transfected in T25 flasks using Lipofectamine 2000 with plasmids encoding GFP (0.35 μg) as a transfection control, as well as N-terminal HA-tagged TMEM233 (0.35 μg) and N-terminal FLAG- tagged NaV1.7 (1.0 μg) alone or in combination. The total amount of plasmid DNA/T25 flask was kept constant at 1.7 μg flask using empty pcDNA3.1 plasmid as required. After 24 h incubation at 37 °C, cells were plated on PDL-coated glass coverslips and cultured for a further 24 h. Cells were washed once using sterile phosphate-buffered saline, fixed with 4% formaldehyde for 5 min, permeabilized with 0.1% Triton-X 100 in PSS, blocked using proximity ligation bocking buffer (Sigma DUO82007) and incubated for 1 h with anti-FLAG (1:1000; Sigma F1804) and anti-HA (1:1000; Sigma H6908) antibodies in Duolink antibody diluent. Permeabilized cells were then washed twice with wash buffer A at room temperature for 5 min. Anti-mouse PLUS (Sigma DUO92001) and anti-rabbit MINUS (Sigma DUO92005) probes were diluted 1:5 in Duolink antibody diluent and incubated with cells for 1 h at 37 °C. Cells were then washed with wash buffer A at room temperature for 5 min twice and incubated with ligase diluted 1:40 in ligation buffer. After incubation at 37 °C for 30 mins, cells were washed twice with wash buffer A. Polymerase was diluted 1:80 in amplification buffer and incubated with cells for 100 mins at 37 °C. Cells were subsequently washed with wash buffer B twice for 10 mins and mounted with Duolink In Situ mounting media with DAPI. Cells were imaged on a Zeiss AxioImage M2 with Apotome2 and Axiocam 506 camera. Proximity ligation assay signal (PLA particles) in GFP-positive cells were quantified using ImageJ in collapsed stacks from 3–6 random images obtained per coverslip (Image>Type>8-bit; Image>Adjust>Threshold; Image>Analyze>Analyze Particles). Particles size was set to 0.0003–∞ and circularity to 0.00–1.00. The average number of particles/GFP-positive cells from three independent experiments was analyzed by One-way ANOVA.

NaV1.7/TMEM233, sequence (Q07699 19-218, one chain of several, further chain): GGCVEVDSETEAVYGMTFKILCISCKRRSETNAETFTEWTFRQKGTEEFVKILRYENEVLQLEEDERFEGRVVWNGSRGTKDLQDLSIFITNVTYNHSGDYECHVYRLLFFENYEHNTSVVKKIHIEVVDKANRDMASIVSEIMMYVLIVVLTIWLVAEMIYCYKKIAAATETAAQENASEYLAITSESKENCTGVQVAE
NaV1.7/TMEM233, sequence (Q15858 whole entry, one chain of several): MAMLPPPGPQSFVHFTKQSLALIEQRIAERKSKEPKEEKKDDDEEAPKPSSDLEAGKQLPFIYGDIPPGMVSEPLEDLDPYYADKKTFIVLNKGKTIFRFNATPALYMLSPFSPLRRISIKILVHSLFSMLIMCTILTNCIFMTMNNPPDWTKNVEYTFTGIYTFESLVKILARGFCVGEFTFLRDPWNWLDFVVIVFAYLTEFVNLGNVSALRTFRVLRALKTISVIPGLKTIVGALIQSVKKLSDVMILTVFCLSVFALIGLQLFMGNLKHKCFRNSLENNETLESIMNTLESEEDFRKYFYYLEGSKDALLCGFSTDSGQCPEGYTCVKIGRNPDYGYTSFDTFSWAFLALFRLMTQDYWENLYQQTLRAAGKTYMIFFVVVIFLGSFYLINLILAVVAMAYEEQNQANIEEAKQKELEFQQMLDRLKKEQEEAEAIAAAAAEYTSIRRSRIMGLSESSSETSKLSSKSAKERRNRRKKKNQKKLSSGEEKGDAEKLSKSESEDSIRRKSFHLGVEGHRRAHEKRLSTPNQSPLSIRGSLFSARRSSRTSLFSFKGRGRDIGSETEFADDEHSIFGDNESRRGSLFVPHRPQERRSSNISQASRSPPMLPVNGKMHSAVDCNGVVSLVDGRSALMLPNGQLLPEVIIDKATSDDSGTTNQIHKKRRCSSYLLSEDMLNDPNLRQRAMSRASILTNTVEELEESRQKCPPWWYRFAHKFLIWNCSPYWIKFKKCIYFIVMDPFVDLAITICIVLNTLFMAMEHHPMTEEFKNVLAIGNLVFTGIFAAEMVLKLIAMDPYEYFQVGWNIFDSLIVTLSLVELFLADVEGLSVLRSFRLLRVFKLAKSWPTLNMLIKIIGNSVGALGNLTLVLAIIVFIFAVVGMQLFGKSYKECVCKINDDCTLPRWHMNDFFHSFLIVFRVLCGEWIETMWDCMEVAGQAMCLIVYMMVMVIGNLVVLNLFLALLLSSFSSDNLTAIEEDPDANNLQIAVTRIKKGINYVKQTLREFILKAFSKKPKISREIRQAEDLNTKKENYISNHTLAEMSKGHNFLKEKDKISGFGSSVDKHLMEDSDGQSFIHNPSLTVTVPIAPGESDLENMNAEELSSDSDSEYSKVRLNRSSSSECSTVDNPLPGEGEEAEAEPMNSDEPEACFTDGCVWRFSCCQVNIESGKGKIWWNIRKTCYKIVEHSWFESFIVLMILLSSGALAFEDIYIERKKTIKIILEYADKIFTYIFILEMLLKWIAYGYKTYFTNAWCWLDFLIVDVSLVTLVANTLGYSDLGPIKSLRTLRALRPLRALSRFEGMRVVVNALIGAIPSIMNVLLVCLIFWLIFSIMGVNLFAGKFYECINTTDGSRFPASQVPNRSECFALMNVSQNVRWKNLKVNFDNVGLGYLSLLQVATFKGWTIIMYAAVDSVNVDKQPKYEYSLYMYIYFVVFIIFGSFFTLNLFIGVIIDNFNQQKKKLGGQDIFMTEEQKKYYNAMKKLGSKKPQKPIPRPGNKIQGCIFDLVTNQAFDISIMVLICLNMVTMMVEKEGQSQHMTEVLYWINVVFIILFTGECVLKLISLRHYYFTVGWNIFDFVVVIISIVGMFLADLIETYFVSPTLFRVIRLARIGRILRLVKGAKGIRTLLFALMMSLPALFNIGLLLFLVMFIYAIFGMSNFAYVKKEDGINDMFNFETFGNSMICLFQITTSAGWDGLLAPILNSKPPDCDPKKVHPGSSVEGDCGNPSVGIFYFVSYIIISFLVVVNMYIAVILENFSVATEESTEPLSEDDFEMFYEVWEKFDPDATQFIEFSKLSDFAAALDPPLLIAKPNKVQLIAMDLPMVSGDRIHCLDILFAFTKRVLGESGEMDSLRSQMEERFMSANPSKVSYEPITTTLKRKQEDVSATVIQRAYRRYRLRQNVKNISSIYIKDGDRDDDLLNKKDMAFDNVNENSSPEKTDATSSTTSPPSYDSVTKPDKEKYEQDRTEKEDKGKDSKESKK
NaV1.7, sequence (Q15858 whole entry): as the sequence (Q15858 whole entry, one chain of several) above
NaV1.7, sequence (Q07699 19-218, further chain): as the sequence (Q07699 19-218, one chain of several, further chain) above

B1: TMEM233 35-109 (protein, UniProt B4DJY2 35-109, looked up, fragment)
chain: KNYLWLTIVSCFCPAYPINIVALVFSIMSLNSYNDGDYEGARRLGRNAKWVAIASIIIGLLIIGISCAVHFTRNA
Tau Fast, individual values (NaV1.7): 8.336 and 5.75 and 6.866 and 4.165 and 7.033 and 6.03 and 5.901
Tau Fast, mean (NaV1.7): 6.297
Tau Fast, mean diff. NaV1.7/β1/TMEM233 35-109 vs. NaV1.7/β1 (NaV1.7): 0.2467

B2: HA-TMEM233 (protein, UniProt B4DJY2 1-109, looked up)
Transmembrane protein 233: MSQYAPSPDFKRALDSSPEANTEDDKTEEDVPMPKNYLWLTIVSCFCPAYPINIVALVFSIMSLNSYNDGDYEGARRLGRNAKWVAIASIIIGLLIIGISCAVHFTRNA
modifications: HA tag
particles/cell, mean (NaV1.7/TMEM233; mean of n = 3): 7.485 particles/cell
particles/cell (NaV1.7/TMEM233; replicate 1): 4.895 particles/cell
particles/cell (NaV1.7/TMEM233; replicate 2): 6.562 particles/cell
particles/cell (NaV1.7/TMEM233; replicate 3): 11 particles/cell
